Results as given in PMC6092412.

What was measured:
[1] = biological target: FlhF-His6 (Vibrio alginolyticus FlhF with a C-terminal His6 tag) (V. alginolyticus); assay: SEC; purified FlhF kept on ice 10 min with 1 mM GTP; SuperDex 75 Increase in 20 mM Tris-HCl pH 8.0, 300 mM NaCl, 10 mM MgCl2, 1 mM GTP; fractions blotted with anti-FlhF antibody
[2] = biological target: FlhF-His6 (Vibrio alginolyticus FlhF with a C-terminal His6 tag) (V. alginolyticus)

Substance	stoichiometry N [1]	GTPase activity of FlhF: inorganic phosphate released in 30 min by 1 μM FlhF mixed with 1 μM FlhG (FlhF alone 5.3 μM; background sample 4.3 μM) [2]
FlhF-His6 (Vibrio alginolyticus FlhF with a C-terminal His6 tag) (enzyme)	2	
His-tagged FlhG (his6-tev-flhG in pTrcHisB) (enzyme)		8.5 µM
